The Human Domainome abundance scans (Beltran et al. 2025)
± gives the uncertainty stated by the source.

B1: Far upstream element-binding protein 3, residues 75 to 150; numbered along this chain, Q96I24 (parent)
chain: RTVITEEFKVPDKMVGFIIGRGGEQISRIQAESGCKIQIASESSGIPERPCVLTGTPESIEQAKRLLGQIVDRCRN

Variants of: B1
Test: abundance fitness (aPCA) (normalised: wild type 0, dead -1); higher = more abundant; growth selection in yeast, the domain comes from the species named
Conditions: Homo sapiens

Variant | abundance fitness
Q62I | -0.043 ± 0.037
S43K | -0.11 ± 0.056
S43D | -0.036 ± 0.056
S43A | -0.064 ± 0.039
S43N | -0.125 ± 0.098
I4S | -0.141 ± 0.035
C51G | -0.206 ± 0.028
C51V | -0.009 ± 0.033
C51R | -0.926 ± 0.042
Q25K | -0.037 ± 0.047
Q25P | -0.163 ± 0.041
Q25G | -0.058 ± 0.026
G23M | -0.078 ± 0.041
G23Q | -0.042 ± 0.036
I29H | -0.622 ± 0.083
I29A | -0.213 ± 0.032
N76L | -0.028 ± 0.049
G45A | -0.041 ± 0.029
G45Q | -0.046 ± 0.038
R1S | -0.042 ± 0.041
R1I | -0.016 ± 0.073
R1Y | -0.126 ± 0.095
P50C | -0.054 ± 0.047
P50R | -0.06 ± 0.026

Variant | abundance fitness
P50Y | -0.113 ± 0.048
I70Q | -0.064 ± 0.043
I70Y | 0.044 ± 0.052
C35P | -0.758 ± 0.07
E42R | 0.005 ± 0.029
E42A | -0.039 ± 0.037
G55T | -1.09 ± 0.078
G55R | -1.07 ± 0.041
G55L | -1.39 ± 0.085
G55H | -1.22 ± 0.14
Q69A | -0.006 ± 0.032
Q69M | -0.03 ± 0.043
T56N | -0.105 ± 0.055
T54A | -0.11 ± 0.046
T54F | -0.378 ± 0.23
T54K | -0.033 ± 0.051
S59G | -0.065 ± 0.028
S59P | -0.866 ± 0.067
M14Q | -0.248 ± 0.043
M14E | -0.216 ± 0.038
E61T | -0.009 ± 0.039
E61K | -0.026 ± 0.041
E61N | -0.064 ± 0.051
E61G | -0.017 ± 0.027

Variant | abundance fitness
E61L | -0.082 ± 0.031
D72A | -0.052 ± 0.029
D72T | -0.1 ± 0.04
D72W | -0.108 ± 0.035
T2H | -0.06 ± 0.062
V15K | -0.119 ± 0.043
V15G | -0.135 ± 0.027
Q30M | -0.097 ± 0.041
Q30Y | -0.31 ± 0.067
Q30A | -0.058 ± 0.031
Q30G | -0.171 ± 0.025
E6N | -0.242 ± 0.067
E6Y | -0.145 ± 0.054
E6F | -0.16 ± 0.056
E6D | -0.084 ± 0.047
I60E | -0.877 ± 0.058
I60Y | -1 ± 0.12
I60G | -0.988 ± 0.038
S41D | -0.06 ± 0.044
G68V | -0.017 ± 0.032
G68E | -0.026 ± 0.038
G68P | -0.723 ± 0.061
K36R | -0.027 ± 0.029
K36E | -0.02 ± 0.039

Variant | abundance fitness
S27D | -0.084 ± 0.075
P47M | -0.072 ± 0.038
P47Q | -0.068 ± 0.039
P47A | -0.03 ± 0.03
T5Y | -0.164 ± 0.08
T5G | -0.3 ± 0.028
P11D | -0.061 ± 0.056
A40V | -0.094 ± 0.029
S33G | -0.747 ± 0.032
S33H | -0.716 ± 0.087
L67N | -0.884 ± 0.1
L67Q | -0.839 ± 0.085
K13S | -0.018 ± 0.031
K13H | 0.016 ± 0.056
R65T | -0.014 ± 0.047
R65N | 0.013 ± 0.059
R65L | -0.017 ± 0.03
E32K | -0.054 ± 0.042
A63C | -0.03 ± 0.043
A63E | -0.831 ± 0.047
A63F | -0.427 ± 0.07
E58D | -0.054 ± 0.062
E58P | -0.108 ± 0.046
E58I | -0.256 ± 0.082

Variant | abundance fitness
F17S | -0.034 ± 0.038
F17V | -0.028 ± 0.031
G22S | -0.078 ± 0.034
G22A | -0.045 ± 0.031
G22N | 0.006 ± 0.062
L66W | -0.17 ± 0.033
R21T | 0.009 ± 0.041
R21E | 0.004 ± 0.035
R21C | -0.089 ± 0.041
E24K | 0.063 ± 0.042
E24N | 0.052 ± 0.05
E24F | -0.043 ± 0.057
K64D | -0.89 ± 0.071
I39A | -0.437 ± 0.036
I39F | -0.114 ± 0.052
I39C | -0.152 ± 0.044
I39P | -0.394 ± 0.044
F8P | -0.651 ± 0.051
F8S | -0.18 ± 0.037
F8V | -0.064 ± 0.029
K9S | 0.025 ± 0.033
K9H | 0.012 ± 0.07
K9W | -0.053 ± 0.031
D12A | -0.024 ± 0.03

Variant | abundance fitness
D12P | -0.058 ± 0.039
I37T | -0.505 ± 0.047
I37R | -0.73 ± 0.03
I37E | -0.595 ± 0.038
I37L | -0.158 ± 0.031
I26V | -0.024 ± 0.031
I26W | -0.2 ± 0.032
V52D | -0.16 ± 0.049
V10W | -0.295 ± 0.032
V10K | -0.794 ± 0.063
V10Y | -0.291 ± 0.059
R49G | -0.129 ± 0.026
R49Q | -0.081 ± 0.041
R49M | -0.169 ± 0.039
C74K | -0.027 ± 0.054
L53C | -0.191 ± 0.062
L53E | -1.05 ± 0.073
I19D | -0.071 ± 0.055
I19T | -0.039 ± 0.044
I19M | -0.062 ± 0.043
I19N | -0.001 ± 0.069
I19W | -0.096 ± 0.037
V71Q | -0.048 ± 0.044
V71I | -0.018 ± 0.067

Variant | abundance fitness
V71S | -0.118 ± 0.037
V71W | -0.175 ± 0.035
V71D | -0.159 ± 0.046
G34R | -0.079 ± 0.03
G34K | -0.027 ± 0.047
G34S | -0.079 ± 0.043
A31W | -0.168 ± 0.03
A31D | -0.015 ± 0.046
A31I | -0.025 ± 0.06
E7Q | -0.072 ± 0.039
R75K | 0.043 ± 0.061
I46E | 0.063 ± 0.033
I46S | -0.018 ± 0.035
I46N | 0.031 ± 0.056
V3A | -0.064 ± 0.034
V3F | -0.066 ± 0.065
R73T | 0.019 ± 0.042
R73M | -0.048 ± 0.042
R73P | -0.001 ± 0.045
R73D | 0.047 ± 0.052
R28M | -0.104 ± 0.046
R28W | -0.118 ± 0.034
G16H | -0.042 ± 0.052
